Measured values: patent US20250152732A1

Biological target: target ligand expressed on MutuDC1940 cells
Experiment: cell-based or functional assay

“antibody-bound lipid nanoparticle carrying a fragment of the NLDC145 antibody conjugated with the membrane scaffold protein ApoA1 (scFv)” showed a relative expression level of the Firefly luciferase gene against general lipid nanoparticles, MutuDC1940 cells, 10% FBS, LP ratio 1,000:1 to 100,000:1 of 5 to 20 times and a relative expression level of the Firefly luciferase gene against general lipid nanoparticles, MutuDC1940 cells, no serum, LP ratio 500:1 to 10,000:1 of 5 to 20 times.

Substance “antibody-bound lipid nanoparticle carrying a fragment of the NLDC145 antibody conjugated with the membrane scaffold protein ApoE3 (scFv)” has a relative expression level of the Firefly luciferase gene against general lipid nanoparticles, MutuDC1940 cells, 10% FBS, LP ratio 500:1 to 100,000:1 of 5 to 20 times and a relative expression level of the Firefly luciferase gene against general lipid nanoparticles, MutuDC1940 cells, no serum, LP ratio 500:1 to 1,000:1 of 5 to 20 times.

“antibody-bound lipid nanoparticle carrying a fragment of the NLDC145 antibody conjugated with the membrane scaffold protein MSP1E3D1 (scFv)” gave a relative expression level of the Firefly luciferase gene against general lipid nanoparticles, MutuDC1940 cells, 10% FBS, LP ratio 5,000:1 to 100,000:1 of 5 to 20 times and a relative expression level of the Firefly luciferase gene against general lipid nanoparticles, MutuDC1940 cells, no serum, LP ratio 5,000:1 to 10,000:1 of 5 to 20 times.
